{"source": "patent US20050287518A1", "about": "(Scripps Research, published 2005)", "binders": {"B1": {"name": "mero-CBD-F271C conjugate (Cdc42-binding fragment of human WASP, amino acids 201 to 321, F271C, C-terminal 6His fusion, labeled with the merocyanine dye of FIG. … (other)", "chain": "DIQNPDITSSRYRGLPAPGPSPADKKRSGKKKISKADIGAPSGFKHVSHVGWDPQNGFDVNNLDPDLRSLCSRAGISEAQLTDAETSKLIYDFIEDQGGLEAVRQEMRRQEPLPPPPPPSHHHHHH", "modifications": "chain 1 pos 71 (WASP 271): Cys carrying the thiol-reactive merocyanine dye of FIG. 11, written C", "notes": "Dye-to-protein ratio 0.8 to 1.2 for single-dye conjugates; also called CBD biosensor; CBD-mero"}}, "key": {"[1]": {"molecular_target": "T1, Recombinant 6His-tagged cdc42 bound to GTPγS (UniProt P60953 1-191, limits assumed)", "T1 construct": "Pre-equilibrated with GTPγS; also called cdc42-GTPγS; not shown: 6His tag", "T1 sequence (P60953 whole entry)": "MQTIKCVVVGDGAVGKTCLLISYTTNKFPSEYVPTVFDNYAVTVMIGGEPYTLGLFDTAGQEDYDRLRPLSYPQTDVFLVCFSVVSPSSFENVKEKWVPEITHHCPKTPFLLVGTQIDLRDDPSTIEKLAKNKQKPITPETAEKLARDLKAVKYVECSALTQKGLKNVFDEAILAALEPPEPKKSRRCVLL", "assay": "fluorescence of mero-CBD with saturating amounts of cdc42-GTPγS", "description": "(§1) Analyses of the solvatochromic activation indicator—A solution of mero-CBD (300 nM) in assay buffer was mixed 1:1 (v/v) with solutions of cdc42 (concentration as indicated), pre-equilibrated with 10 mM GDP or GTPγS as described in Knaus, U. G., Heyworth, P. G., Kinsella, B. T., Cumutte, J. T., and Bokoch, G. M. (1992) J. Biol. Chem. 267, 23575-23582. Emission wavelength of 630 nm and excitation wavelength of 600 nm were used to acquire excitation and emission spectra, respectively. For nucleotide dependence, cdc42 (500 nM) was pre-incubated with varying concentrations of GTPγS (1 to 500 nM). Rac1 and RhoA GTPases were pre-equilibrated with GTP […]S in the same manner.\n(§2) Fluorescence increase as a measure of CBD-cdc42 interaction—The functionality and specificity of mero-CBD was characterized by measuring fluorescence in the presence of saturating amounts of cdc42-GDP or cdc42-GTPγS. […] Negligible increase (<5%) was also observed in the presence of activated Rac1. No effect on the mero-CBD fluorescence was observed when RhoA-GTPγS was present. Furthermore, even in the presence of excess of activated Rac1 and RhoA, GDP- and GTPγS-bound forms of cdc42 were easily distinguished by CBD-A4C fluorescence (data not shown)."}, "[2]": {"molecular_target": "T1, Recombinant 6His-tagged cdc42 bound to …", "assay": "fluorescence of the solvatochromic dye on CBD, comparison of three cysteine mutants (FIG. 15)", "description": "as §1"}, "[3]": {"molecular_target": "T2, Recombinant 6His-tagged RhoA pre-equilibrated with GTPγS (UniProt P61586 1-193, limits assumed)", "T2 construct": "also called RhoA-GTPγS; not shown: 6His tag", "T2 sequence (P61586 whole entry)": "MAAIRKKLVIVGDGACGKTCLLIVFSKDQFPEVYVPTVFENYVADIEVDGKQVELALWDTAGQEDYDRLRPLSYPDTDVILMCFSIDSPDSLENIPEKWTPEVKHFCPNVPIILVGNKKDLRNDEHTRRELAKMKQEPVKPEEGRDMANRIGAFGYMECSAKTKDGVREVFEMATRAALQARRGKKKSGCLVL", "assay": "fluorescence of the solvatochromic dye on mero-CBD, in vitro", "description": "as §1, §2"}}}
{"binder": "B1", "values": [{"measurement": "fold increase in excitation and emission maxima", "setting": "[1]", "result": "~3.5", "unit": "fold"}, {"measurement": "fold fluorescence change on binding", "setting": "[2]", "result": "~3.5", "unit": "fold"}, {"measurement": "binding result", "setting": "[3]", "result": "no binding"}]}
